B1: DNA topoisomerase 3-beta-1 (Homo sapiens), O95985 (parent)
chain: MKTVLMVAEKPSLAQSIAKILSRGSLSSHKGLNGACSVHEYTGTFAGQPVRFKMTSVCGHVMTLDFLGKYNKWDKVDPAELFSQAPTEKKEANPKLNMVKFLQVEGRGCDYIVLWLDCDKEGENICFEVLDAVLPVMNKAHGGEKTVFRARFSSITDTDICNAMACLGEPDHNEALSVDARQELDLRIGCAFTRFQTKYFQGKYGDLDSSLISFGPCQTPTLGFCVERHDKIQSFKPETYWVLQAKVNTDKDRSLLLDWDRVRVFDREIAQMFLNMTKLEKEAQVEATSRKEKAKQRPLALNTVEMLRVASSSLGMGPQHAMQTAERLYTQGYISYPRTETTHYPENFDLKGSLRQQANHPYWADTVKRLLAEGINRPRKGHDAGDHPPITPMKSATEAELGGDAWRLYEYITRHFIATVSHDCKYLQSTISFRIGPELFTCSGKTVLSPGFTEVMPWQSVPLEESLPTCQRGDAFPVGEVKMLEKQTNPPDYLTEAELITLMEKHGIGTDASIPVHINNICQRNYVTVESGRRLKPTNLGIVLVHGYYKIDAELVLPTIRSAVEKQLNLIAQGKADYRQVLGHTLDVFKRKFHYFVDSIAGMDELMEVSFSPLAATGKPLSRCGKCHRFMKYIQAKPSRLHCSHCDETYTLPQNGTIKLYKELRCPLDDFELVLWSSGSRGKSYPLCPYCYNHPPFRDMKKGMGCNECTHPSCQHSLSMLGIGQCVECESGVLVLDPTSGPKWKVACNKCNVVAHCFENAHRVRVSADTCSVCEAALLDVDFNKAKSPLPGDETQHMGCVFCDPVFQELVELKHAASCHPMHRGGPGRRQGRGRGRARRPPGKPNPRRPKDKMSALAAYFV
partner: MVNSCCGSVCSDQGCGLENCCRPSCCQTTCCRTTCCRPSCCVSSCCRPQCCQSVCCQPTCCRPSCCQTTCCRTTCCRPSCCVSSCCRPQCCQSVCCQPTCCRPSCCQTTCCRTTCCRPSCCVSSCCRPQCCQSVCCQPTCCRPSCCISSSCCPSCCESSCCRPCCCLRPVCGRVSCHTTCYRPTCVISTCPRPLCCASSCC
B2: Protein-lysine methyltransferase METTL21C (Homo sapiens), Q5VZV1 (parent)
chain: MDVCLSSAQQPGRRGEGLSSPGGWLEAEKKGAPQKDSTGGVLEESNKIEPSLHSLQKFVPTDYASYTQEHYRFAGKEIVIQESIESYGAVVWPGAMALCQYLEEHAEELNFQDAKILEIGAGPGLVSIVASILGAQVTATDLPDVLGNLQYNLLKNTLQCTAHLPEVKELVWGEDLDKNFPKSAFYYDYVLASDVVYHHYFLDKLLTTMVYLSQPGTVLLWANKFRFSTDYEFLDKFKQVFDTTLLAEYPESSVKLFKGILKWD
B3: Germ cell-less protein-like 1 (Homo sapiens), Q96IK5 (parent)
chain: MGSLSSRVLRQPRPALAQQAQGARAGGSARRPDTGDDAAGHGFCYCAGSHKRKRSSGSFCYCHPDSETDEDEEEGDEQQRLLNTPRRKKLKSTSKYIYQTLFLNGENSDIKICALGEEWSLHKIYLCQSGYFSSMFSGSWKESSMNIIELEIPDQNIDVEALQVAFGSLYRDDVLIKPSRVVAILAAACLLQLDGLIQQCGETMKETVNVKTVCGYYTSAGTYGLDSVKKKCLEWLLNNLMTHQNVELFKELSINVMKQLIGSSNLFVMQVEMDIYTALKKWMFLQLVPSWNGSLKQLLTETDVWFSKQRKDFEGMAFLETEQGKPFVSVFRHLRLQYIISDLASARIIEQDAVVPSEWLSSVYKQQWFAMLRAEQDSEVGPQEINKEELEGNSMRCGRKLAKDGEYCWRWTGFNFGFDLLVTYTNRYIIFKRNTLNQPCSGSVSLQPRRSIAFRLRLASFDSSGKLICSRTTGYQILTLEKDQEQVVMNLDSRLLIFPLYICCNFLYISPEKKN
partner: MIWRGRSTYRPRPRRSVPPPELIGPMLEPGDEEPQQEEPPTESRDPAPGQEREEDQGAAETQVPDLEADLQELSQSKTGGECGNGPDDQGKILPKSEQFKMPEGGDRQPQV
B4: Ornithine decarboxylase antizyme 3 (Homo sapiens), Q9UMX2 (parent)
chain: MPCKRCRPSVYSLSYIKRGKTRNYLYPIWSPYAYYLYCYKYRITLREKMLPRCYKSITYKEEEDLTLQPRSCLQCSESLVGLQEGKSTEQGNHDQLKELYSAGNLTVLATDPLLHQDPVQLDFHFRLTSQTSAHWHGLLCDRRLFLDIPYQALDQGNRESLTATLEYVEEKTNVDSVFVNFQNDRNDRGALLRAFSYMGFEVVRPDHPALPPLDNVIFMVYPLERDVGHLPSEPP
partner: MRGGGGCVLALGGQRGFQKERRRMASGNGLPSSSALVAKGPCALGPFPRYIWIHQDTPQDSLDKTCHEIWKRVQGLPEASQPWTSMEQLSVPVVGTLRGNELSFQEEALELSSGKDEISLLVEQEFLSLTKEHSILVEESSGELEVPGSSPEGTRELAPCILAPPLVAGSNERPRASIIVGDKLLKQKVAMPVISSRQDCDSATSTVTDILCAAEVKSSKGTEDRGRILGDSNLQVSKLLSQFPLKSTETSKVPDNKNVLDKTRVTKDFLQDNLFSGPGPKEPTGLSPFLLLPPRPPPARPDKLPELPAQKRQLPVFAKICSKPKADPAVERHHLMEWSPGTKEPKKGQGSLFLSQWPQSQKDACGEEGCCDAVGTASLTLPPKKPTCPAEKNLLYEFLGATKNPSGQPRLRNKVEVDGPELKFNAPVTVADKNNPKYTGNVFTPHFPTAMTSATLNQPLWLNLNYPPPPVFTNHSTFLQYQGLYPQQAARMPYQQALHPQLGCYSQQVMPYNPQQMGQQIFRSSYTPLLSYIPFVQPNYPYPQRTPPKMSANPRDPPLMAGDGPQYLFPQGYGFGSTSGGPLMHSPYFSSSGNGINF

Variants of: B1
Conditions: with kr412_human KRTAP4-12, Q9BQ66

| Variant | effect of a mutation on the interaction |
| --- | --- |
| R267W | with no effect |

Variants of: B2
Conditions: with eloc_human ELOC

| Variant | effect of a mutation on the interaction |
| --- | --- |
| G15R | with no effect |

Variants of: B3
Conditions: with xage3_human XAGE3, Q8WTP9

| Variant | effect of a mutation on the interaction |
| --- | --- |
| K281Q | with no effect |
| Y61S | with no effect |
| R449Q | with no effect |
| E77K | with no effect |
| K123R | with no effect |
| I147V | with no effect |
| R457H | with no effect |
| I340V | with no effect |

Variants of: B4
Conditions: with ca094_human C1orf94, Q6P1W5

| Variant | effect of a mutation on the interaction |
| --- | --- |
| V174A | disrupting interaction strength |

From IntAct's records for PubMed 31515488
